From patent US20230203177A1 (Bristol-Myers Squibb, published 2023)
Residue numbers refer to the chain shown, from its start. Names may count otherwise.

B1: M45 (HC-E46K,E62K / LC-K45E) (antibody, human IgG1, kappa, V domains shown)
VH: QVQLVQSGAEVKKPGSSVKVSCKASGYAFTSYWMHWVRQAPGQGLKWMGQINPTTGRSQYNKKFKTRVTITADKSTSTAYMELSSLRSEDTAVYYCARWGLQPFAYWGQGTLVTVSS
VL: DIQMTQSPSFLSASVGDRVTITCKASQDVSTAVAWYQQKPGKAPELLIYSASYRYTGVPSRFSGSGSGTDFTLTISSLQPEDFATYYCQQHYSTPWTFGGGTKVEIKR
notes: IgG1-P238K; also called HC13/LC3
B2: M65 (HC-wt / LC-R61Q) (antibody, human IgG1, kappa)
heavy: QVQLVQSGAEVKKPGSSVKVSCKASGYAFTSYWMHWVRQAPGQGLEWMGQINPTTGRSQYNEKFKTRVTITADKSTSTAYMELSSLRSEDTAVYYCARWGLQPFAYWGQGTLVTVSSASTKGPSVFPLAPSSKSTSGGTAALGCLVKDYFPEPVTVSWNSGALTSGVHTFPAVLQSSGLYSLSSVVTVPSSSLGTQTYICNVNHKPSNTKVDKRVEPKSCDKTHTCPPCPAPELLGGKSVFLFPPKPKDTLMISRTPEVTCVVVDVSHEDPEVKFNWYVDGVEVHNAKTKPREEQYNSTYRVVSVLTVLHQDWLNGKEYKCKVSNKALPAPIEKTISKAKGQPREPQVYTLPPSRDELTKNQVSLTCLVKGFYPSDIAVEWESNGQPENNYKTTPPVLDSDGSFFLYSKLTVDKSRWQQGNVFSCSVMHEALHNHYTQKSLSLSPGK
light: DIQMTQSPSFLSASVGDRVTITCKASQDVSTAVAWYQQKPGKAPKLLIYSASYRYTGVPSQFSGSGSGTDFTLTISSLQPEDFATYYCQQHYSTPWTFGGGTKVEIKRTVAAPSVFIFPPSDEQLKSGTASVVCLLNNFYPREAKVQWKVDNALQSGNSQESVTEQDSKDSTYSLSSTLTLSKADYEKHKVYACEVTHQGLSSPVTKSFNRGEC
notes: IgG1-P238K; also called HC1/LC5
B3: M67 (HC-K12Q,K13Q,K23Q / LC-R61Q) (antibody, human IgG1, kappa, V domains shown)
VH: B1 VH with K12Q, K13Q, K23Q, K46E, K62E
VL: B1 VL with E45K, R61Q
notes: IgG1-P238K; also called HC3/LC5
B4: M55 (HC-K23E / LC-K45Q,R54Q,R61Q) (antibody, human IgG1, kappa)
heavy: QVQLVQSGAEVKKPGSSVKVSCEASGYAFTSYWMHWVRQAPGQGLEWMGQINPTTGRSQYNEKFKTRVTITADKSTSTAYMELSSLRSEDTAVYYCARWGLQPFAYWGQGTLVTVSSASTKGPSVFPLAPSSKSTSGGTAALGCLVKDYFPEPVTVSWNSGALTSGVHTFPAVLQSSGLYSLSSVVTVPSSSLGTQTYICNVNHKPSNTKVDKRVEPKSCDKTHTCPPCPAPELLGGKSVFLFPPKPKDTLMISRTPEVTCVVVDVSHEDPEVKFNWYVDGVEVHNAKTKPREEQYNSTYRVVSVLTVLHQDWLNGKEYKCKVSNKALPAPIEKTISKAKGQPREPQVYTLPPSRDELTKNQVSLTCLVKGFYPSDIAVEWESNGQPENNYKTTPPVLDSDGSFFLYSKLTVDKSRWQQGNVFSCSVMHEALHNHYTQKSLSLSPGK
light: B2 light with K45Q, R54Q
notes: IgG1-P238K; also called HC7/LC4
B5: M77 (HC-E46K,E62K / LC-R61Q) (antibody, human IgG1, kappa, V domains shown)
VH: B1 VH
VL: B1 VL with E45K, R61Q
notes: IgG1-P238K; also called HC13/LC5
B6: M57 (HC-K63Q,R67E / LC-K45Q,R54Q,R61Q) (antibody, human IgG1, kappa, V domains shown)
VH: B1 VH with K46E, K62E, K63Q, R67E
VL: B1 VL with E45Q, R54Q, R61Q
notes: IgG1-P238K; also called HC9/LC4
B7: M71 (HC-K23E / LC-R61Q) (antibody, human IgG1, kappa)
heavy: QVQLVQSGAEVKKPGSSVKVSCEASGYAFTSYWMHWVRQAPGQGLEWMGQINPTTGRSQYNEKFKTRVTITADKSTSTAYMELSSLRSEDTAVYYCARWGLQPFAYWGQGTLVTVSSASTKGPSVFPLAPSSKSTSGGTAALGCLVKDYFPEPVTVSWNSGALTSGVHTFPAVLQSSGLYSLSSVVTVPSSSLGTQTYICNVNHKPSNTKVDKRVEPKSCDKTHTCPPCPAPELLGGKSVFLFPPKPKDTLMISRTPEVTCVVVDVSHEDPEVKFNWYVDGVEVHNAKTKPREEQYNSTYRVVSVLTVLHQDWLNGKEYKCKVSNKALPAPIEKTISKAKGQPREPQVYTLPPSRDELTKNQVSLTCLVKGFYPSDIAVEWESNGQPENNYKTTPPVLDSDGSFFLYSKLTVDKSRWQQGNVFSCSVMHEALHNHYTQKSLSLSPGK
light: B2 light
notes: IgG1-P238K; also called HC7/LC5
B8: M82 (HC-K12Q,K13Q / LC-K107Q,R108Q) (antibody, human IgG1, kappa)
heavy: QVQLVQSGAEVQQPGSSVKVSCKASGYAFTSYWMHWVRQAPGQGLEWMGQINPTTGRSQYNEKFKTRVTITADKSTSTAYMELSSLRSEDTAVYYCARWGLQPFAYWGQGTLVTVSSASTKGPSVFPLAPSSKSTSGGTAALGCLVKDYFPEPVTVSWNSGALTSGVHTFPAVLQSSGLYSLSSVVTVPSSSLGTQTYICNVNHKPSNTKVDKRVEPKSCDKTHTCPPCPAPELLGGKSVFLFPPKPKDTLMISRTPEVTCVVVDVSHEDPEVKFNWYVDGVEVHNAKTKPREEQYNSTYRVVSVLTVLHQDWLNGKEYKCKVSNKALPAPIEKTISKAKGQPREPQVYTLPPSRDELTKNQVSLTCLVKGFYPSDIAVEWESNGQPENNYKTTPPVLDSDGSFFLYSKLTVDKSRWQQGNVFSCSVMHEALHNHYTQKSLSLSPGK
light: B2 light with Q61R, K107Q, R108Q
notes: IgG1-P238K; also called HC2/LC6
B9: M68 (HC-K12E / LC-R61Q) (antibody, human IgG1, kappa)
heavy: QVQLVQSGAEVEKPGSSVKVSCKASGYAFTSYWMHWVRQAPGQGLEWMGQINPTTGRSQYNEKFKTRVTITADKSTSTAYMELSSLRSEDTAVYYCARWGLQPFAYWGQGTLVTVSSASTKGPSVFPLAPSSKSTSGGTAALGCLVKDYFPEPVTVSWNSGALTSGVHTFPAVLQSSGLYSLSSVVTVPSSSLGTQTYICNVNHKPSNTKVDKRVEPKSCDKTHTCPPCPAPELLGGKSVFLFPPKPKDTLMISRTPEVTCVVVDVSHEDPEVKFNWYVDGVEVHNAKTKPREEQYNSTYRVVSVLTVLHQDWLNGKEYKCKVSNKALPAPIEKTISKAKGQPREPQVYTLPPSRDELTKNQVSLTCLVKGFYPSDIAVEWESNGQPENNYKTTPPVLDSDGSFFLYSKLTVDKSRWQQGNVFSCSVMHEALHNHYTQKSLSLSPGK
light: B2 light
notes: IgG1-P238K; also called HC4/LC5
B10: M74 (HC-R67E / LC-R61Q) (antibody, human IgG1, kappa, V domains shown)
VH: B1 VH with K46E, K62E, R67E
VL: B1 VL with E45K, R61Q
notes: IgG1-P238K; also called HC10/LC5
B11: M60 (HC-R57E,K74Q / LC-K45Q,R54Q,R61Q) (antibody, human IgG1, kappa, V domains shown)
VH: B1 VH with K46E, R57E, K62E, K74Q
VL: B1 VL with E45Q, R54Q, R61Q
notes: IgG1-P238K; also called HC12/LC4
B12: M59 (HC-R57E / LC-K45Q,R54Q,R61Q) (antibody, human IgG1, kappa, V domains shown)
VH: B1 VH with K46E, R57E, K62E
VL: B1 VL with E45Q, R54Q, R61Q
notes: IgG1-P238K; also called HC11/LC4
B13: M58 (HC-R67E / LC-K45Q,R54Q,R61Q) (antibody, human IgG1, kappa, V domains shown)
VH: B1 VH with K46E, K62E, R67E
VL: B1 VL with E45Q, R54Q, R61Q
notes: IgG1-P238K; also called HC10/LC4
B14: M75 (HC-R57E / LC-R61Q) (antibody, human IgG1, kappa, V domains shown)
VH: B1 VH with K46E, R57E, K62E
VL: B1 VL with E45K, R61Q
notes: IgG1-P238K; also called HC11/LC5
B15: M76 (HC-R57E,K74Q / LC-R61Q) (antibody, human IgG1, kappa, V domains shown)
VH: B1 VH with K46E, R57E, K62E, K74Q
VL: B1 VL with E45K, R61Q
notes: IgG1-P238K; also called HC12/LC5
B16: M61 (HC-E46K,E62K / LC-K45Q,R54Q,R61Q) (antibody, human IgG1, kappa, V domains shown)
VH: B1 VH
VL: B1 VL with E45Q, R54Q, R61Q
notes: IgG1-P238K; also called HC13/LC4
B17: M73 (HC-K63Q,R67E / LC-R61Q) (antibody, human IgG1, kappa, V domains shown)
VH: B1 VH with K46E, K62E, K63Q, R67E
VL: B1 VL with E45K, R61Q
notes: IgG1-P238K; also called HC9/LC5
B18: M52 (HC-K12E / LC-K45Q,R54Q,R61Q) (antibody, human IgG1, kappa)
heavy: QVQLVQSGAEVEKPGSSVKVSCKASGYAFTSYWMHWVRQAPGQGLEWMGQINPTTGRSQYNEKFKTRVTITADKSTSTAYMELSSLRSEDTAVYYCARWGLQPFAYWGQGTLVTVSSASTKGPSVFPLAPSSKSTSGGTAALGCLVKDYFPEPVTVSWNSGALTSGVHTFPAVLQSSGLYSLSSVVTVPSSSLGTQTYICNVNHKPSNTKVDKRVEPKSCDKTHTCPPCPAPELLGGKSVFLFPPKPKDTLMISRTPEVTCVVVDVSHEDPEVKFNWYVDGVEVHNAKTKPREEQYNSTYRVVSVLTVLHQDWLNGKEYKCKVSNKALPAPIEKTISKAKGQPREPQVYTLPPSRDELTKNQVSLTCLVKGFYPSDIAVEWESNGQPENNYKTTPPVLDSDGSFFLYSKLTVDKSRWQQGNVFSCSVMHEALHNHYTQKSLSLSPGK
light: B2 light with K45Q, R54Q
notes: IgG1-P238K; also called HC4/LC4
B19: M64 (HC-K63Q / LC-K45Q,R54Q,R61Q) (antibody, human IgG1, kappa, V domains shown)
VH: B1 VH with K46E, K62E, K63Q
VL: B1 VL with E45Q, R54Q, R61Q
notes: IgG1-P238K; also called HC16/LC4
B20: M70 (HC-K12V,K19S,K23A / LC-R61Q) (antibody, human IgG1, kappa, V domains shown)
VH: B1 VH with K12V, K19S, K23A, K46E, K62E
VL: B1 VL with E45K, R61Q
notes: IgG1-P238K; also called HC6/LC5
B21: M69 (HC-K12E,K13Q,K23E / LC-R61Q) (antibody, human IgG1, kappa)
heavy: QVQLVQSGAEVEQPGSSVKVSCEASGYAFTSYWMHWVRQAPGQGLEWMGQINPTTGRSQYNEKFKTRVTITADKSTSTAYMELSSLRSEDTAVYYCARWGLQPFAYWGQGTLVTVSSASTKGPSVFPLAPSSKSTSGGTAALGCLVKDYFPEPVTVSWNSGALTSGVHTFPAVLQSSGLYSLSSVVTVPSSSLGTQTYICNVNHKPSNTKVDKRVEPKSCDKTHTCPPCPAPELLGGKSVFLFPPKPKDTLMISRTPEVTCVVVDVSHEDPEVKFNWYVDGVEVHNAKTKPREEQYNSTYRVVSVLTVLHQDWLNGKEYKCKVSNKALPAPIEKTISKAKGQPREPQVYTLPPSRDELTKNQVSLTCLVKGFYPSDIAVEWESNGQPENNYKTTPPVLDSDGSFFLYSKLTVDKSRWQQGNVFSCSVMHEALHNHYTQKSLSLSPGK
light: B2 light
notes: IgG1-P238K; also called HC5/LC5
B22: M72 (HC-R38Q,K63Q,R67Q / LC-R61Q) (antibody, human IgG1, kappa, V domains shown)
VH: B1 VH with R38Q, K46E, K62E, K63Q, R67Q
VL: B1 VL with E45K, R61Q
notes: IgG1-P238K; also called HC8/LC5
B23: M66 (HC-K12Q,K13Q / LC-R61Q) (antibody, human IgG1, kappa)
heavy: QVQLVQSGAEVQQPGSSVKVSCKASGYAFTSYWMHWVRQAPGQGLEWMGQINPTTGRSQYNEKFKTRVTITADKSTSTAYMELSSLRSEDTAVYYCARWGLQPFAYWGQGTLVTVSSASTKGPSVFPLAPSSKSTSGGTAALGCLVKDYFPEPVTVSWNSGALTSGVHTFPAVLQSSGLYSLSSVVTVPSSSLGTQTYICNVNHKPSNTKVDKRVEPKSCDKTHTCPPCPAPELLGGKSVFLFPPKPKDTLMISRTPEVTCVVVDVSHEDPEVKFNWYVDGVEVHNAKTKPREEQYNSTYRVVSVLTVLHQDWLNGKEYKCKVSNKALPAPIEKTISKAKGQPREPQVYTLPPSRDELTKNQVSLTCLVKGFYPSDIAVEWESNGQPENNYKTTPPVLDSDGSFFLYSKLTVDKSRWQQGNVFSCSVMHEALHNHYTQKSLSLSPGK
light: B2 light
notes: IgG1-P238K; also called HC2/LC5
B24: M79 (HC-R67Q / LC-R61Q) (antibody, human IgG1, kappa, V domains shown)
VH: B1 VH with K46E, K62E, R67Q
VL: B1 VL with E45K, R61Q
notes: IgG1-P238K; also called HC15/LC5
B25: M46 (HC-K74T / LC-K45E) (antibody, human IgG1, kappa, V domains shown)
VH: B1 VH with K46E, K62E, K74T
VL: B1 VL
notes: IgG1-P238K; also called HC14/LC3
B26: M51 (HC-K12Q,K13Q,K23Q / LC-K45Q,R54Q,R61Q) (antibody, human IgG1, kappa, V domains shown)
VH: B1 VH with K12Q, K13Q, K23Q, K46E, K62E
VL: B1 VL with E45Q, R54Q, R61Q
notes: IgG1-P238K; also called HC3/LC4
B27: M83 (HC-K12Q,K13Q,K23Q / LC-K107Q,R108Q) (antibody, human IgG1, kappa)
heavy: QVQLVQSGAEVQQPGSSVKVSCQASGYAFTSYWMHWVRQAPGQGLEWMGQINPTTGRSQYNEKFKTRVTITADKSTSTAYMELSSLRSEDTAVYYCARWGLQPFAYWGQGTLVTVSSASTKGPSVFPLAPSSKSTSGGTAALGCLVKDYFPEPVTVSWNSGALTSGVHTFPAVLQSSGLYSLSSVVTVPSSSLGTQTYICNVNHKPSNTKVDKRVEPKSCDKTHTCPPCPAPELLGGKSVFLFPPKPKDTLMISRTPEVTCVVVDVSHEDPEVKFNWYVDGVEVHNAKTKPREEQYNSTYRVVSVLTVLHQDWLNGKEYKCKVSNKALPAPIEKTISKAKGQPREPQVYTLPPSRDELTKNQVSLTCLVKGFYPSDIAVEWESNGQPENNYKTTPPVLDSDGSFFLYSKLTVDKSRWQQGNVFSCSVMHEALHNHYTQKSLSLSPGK
light: B2 light with Q61R, K107Q, R108Q
notes: IgG1-P238K; also called HC3/LC6
B28: M56 (HC-R38Q,K63Q,R67Q / LC-K45Q,R54Q,R61Q) (antibody, human IgG1, kappa, V domains shown)
VH: B1 VH with R38Q, K46E, K62E, K63Q, R67Q
VL: B1 VL with E45Q, R54Q, R61Q
notes: IgG1-P238K; also called HC8/LC4
B29: M50 (HC-K12Q,K13Q / LC-K45Q,R54Q,R61Q) (antibody, human IgG1, kappa)
heavy: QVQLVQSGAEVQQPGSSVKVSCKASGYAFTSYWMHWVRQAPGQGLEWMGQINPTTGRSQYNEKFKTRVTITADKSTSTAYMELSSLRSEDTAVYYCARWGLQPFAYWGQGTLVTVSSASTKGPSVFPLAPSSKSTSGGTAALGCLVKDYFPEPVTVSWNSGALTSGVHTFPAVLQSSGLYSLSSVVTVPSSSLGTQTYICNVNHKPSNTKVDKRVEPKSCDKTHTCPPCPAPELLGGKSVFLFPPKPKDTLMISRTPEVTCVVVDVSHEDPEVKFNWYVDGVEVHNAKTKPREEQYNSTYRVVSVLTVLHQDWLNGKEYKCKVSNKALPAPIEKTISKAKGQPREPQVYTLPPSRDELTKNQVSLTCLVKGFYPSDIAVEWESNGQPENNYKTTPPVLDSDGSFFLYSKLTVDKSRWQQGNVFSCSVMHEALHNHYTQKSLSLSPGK
light: B2 light with K45Q, R54Q
notes: IgG1-P238K; also called HC2/LC4
B30: M84 (HC-K12E / LC-K107Q,R108Q) (antibody, human IgG1, kappa)
heavy: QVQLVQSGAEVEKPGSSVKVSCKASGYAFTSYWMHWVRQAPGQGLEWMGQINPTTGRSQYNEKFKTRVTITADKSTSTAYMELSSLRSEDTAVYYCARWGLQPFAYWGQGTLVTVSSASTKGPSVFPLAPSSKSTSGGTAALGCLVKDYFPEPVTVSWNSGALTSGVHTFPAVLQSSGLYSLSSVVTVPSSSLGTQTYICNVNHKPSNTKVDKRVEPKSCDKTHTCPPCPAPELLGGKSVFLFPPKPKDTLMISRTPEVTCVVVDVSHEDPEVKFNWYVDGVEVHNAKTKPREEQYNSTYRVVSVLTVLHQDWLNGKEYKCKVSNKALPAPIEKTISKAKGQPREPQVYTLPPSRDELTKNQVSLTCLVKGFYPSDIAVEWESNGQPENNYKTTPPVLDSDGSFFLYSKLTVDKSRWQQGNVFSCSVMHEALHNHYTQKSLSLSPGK
light: B2 light with Q61R, K107Q, R108Q
notes: IgG1-P238K; also called HC4/LC6
B31: M78 (HC-K74T / LC-R61Q) (antibody, human IgG1, kappa, V domains shown)
VH: B1 VH with K46E, K62E, K74T
VL: B1 VL with E45K, R61Q
notes: IgG1-P238K; also called HC14/LC5
B32: M48 (HC-K63Q / LC-K45E) (antibody, human IgG1, kappa, V domains shown)
VH: B1 VH with K46E, K62E, K63Q
VL: B1 VL
notes: IgG1-P238K; also called HC16/LC3

target: T1, soluble human CD40 extracellular domain (human, UniProt P25942 21-193); test: SPR, Ab captured from supernatant on protein A, hCD40 ECD analyte
T1 construct: Produced in house; also called hCD40; soluble hCD40 extracellular domain
Protocol: The titer data (Table 21) were used to normalize the antibody concentration in each supernatant to 3 μg/ml, and these antibodies were captured out of the supernatants on a protein A CMS Series S sensor chip (GE Healthcare), and tested for binding to two concentrations (5 nM and 50 nM) of soluble hCD40 extracellular domain.
CD40 binding SPR of antibody supernatants: Surface plasmon resonance (SPR) studies were conducted on a BIAcore™ T200 instrument (GE Healthcare, Chicago Ill.). A Series S Protein A sensor chip (GE Healthcare, Chicago Ill.) was equilibrated with SPR running buffer of 10 mM NaPO₄, 130 mM NaCl, 0.05% tween 20, (PBS-T) pH 7.2 at 25° C. The 96 antibody supernatants were normalized to a concentration of 3 μg/ml by diluting with PBS-T using a PerkinElmer JANUS® G3 system (PerkinElmer, Akron, Ohio). After priming the system, the 3 μg/ml antibody samples were captured on the protein A surface for 30 s at 10 μl/min Binding of 50 nM and 500 nM human CD40 extracellular domain (produced in house) was evaluated using association time of 180 s at 30 μl/min, followed by a dissociation time of 180 s at 30 μl/min Regeneration between cycles was accomplished using two 15 s injections of 10 mM glycine pH 1.5. […] Data were analyzed using BIAcore™ T200 evaluation software by fitting to a 1:1 Langmuir model.

T1 sequence (P25942 21-193 limits assumed): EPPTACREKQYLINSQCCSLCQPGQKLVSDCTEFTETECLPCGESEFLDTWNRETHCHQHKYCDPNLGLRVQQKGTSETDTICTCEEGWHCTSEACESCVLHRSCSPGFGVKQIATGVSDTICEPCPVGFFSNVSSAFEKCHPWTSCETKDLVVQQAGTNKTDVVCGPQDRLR

Point of comparison: B26, Kd 2.9 nM. Against it:
- B1 — 3-fold higher, 8.8 nM
- B2 — within 1.5-fold, 4.3 nM
- B3 — within 1.5-fold, 3.6 nM
- B4 — within 1.5-fold, 3.5 nM
- B5 — 2.7-fold higher, 7.9 nM
- B6 — within 1.5-fold, 2.5 nM
- B7 — 1.5-fold higher, 4.4 nM
- B8 — within 1.5-fold, 3.2 nM
- B9 — within 1.5-fold, 3.6 nM
- B10 — the same, 2.9 nM
- B11 — 5.1-fold higher, 14.7 nM
- B12 — 3.3-fold higher, 9.5 nM
- B13 — within 1.5-fold, 2.1 nM
- B14 — 3.6-fold higher, 10.5 nM
- B15 — 5.1-fold higher, 14.8 nM
- B16 — 2.6-fold higher, 7.5 nM
- B17 — within 1.5-fold, 3 nM
- B18 — within 1.5-fold, 2.6 nM
- B19 — within 1.5-fold, 3.3 nM
- B20 — within 1.5-fold, 3.5 nM
- B21 — within 1.5-fold, 3.8 nM
- B22 — the same, 2.9 nM
- B23 — within 1.5-fold, 3.6 nM
- B24 — within 1.5-fold, 3.5 nM
- B25 — within 1.5-fold, 3.9 nM
- B27 — within 1.5-fold, 3.6 nM
- B28 — within 1.5-fold, 2.5 nM
- B29 — within 1.5-fold, 2.5 nM
- B30 — within 1.5-fold, 3.3 nM
- B31 — within 1.5-fold, 4 nM
- B32 — within 1.5-fold, 3.8 nM
